Assay results taken from patent US20260116984A1 (ENTHERA S R L, published 2026).
Residue numbers refer to the chain shown, from its start.

T1: Human Ecto-TMEM219 (human, UniProt Q86XT9 43-204)
T1 construct: also called hEcto-TMEM
T1 sequence: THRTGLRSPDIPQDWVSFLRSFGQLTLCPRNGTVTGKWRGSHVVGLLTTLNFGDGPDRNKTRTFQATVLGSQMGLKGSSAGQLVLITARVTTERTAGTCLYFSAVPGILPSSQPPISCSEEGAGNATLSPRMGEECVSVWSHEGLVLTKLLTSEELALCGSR

T2: Murine Ecto-TMEM219 (murine, UniProt Q9D123 43-203)
T2 construct: also called mEcto-TMEM
T2 sequence: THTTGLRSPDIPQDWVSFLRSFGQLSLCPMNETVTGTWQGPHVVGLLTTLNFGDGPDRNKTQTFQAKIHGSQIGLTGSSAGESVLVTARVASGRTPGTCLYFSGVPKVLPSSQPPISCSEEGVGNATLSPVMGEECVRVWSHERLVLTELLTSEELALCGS

B1: TC05 (antibody, human IgG4, V domains shown)
VH: QIQLVQSGAEVKQPGASVSVSCAASGYTFTSYGISWVRQAPGQGLEWMGWISAYNGNTNYAQKLQGRVTMTTDTSTSTAYMELSSLRSDDTAVYYCARWGRWLAHDYWGQGTLVTVSS
VL: QAVLTQPPSVSVSPGQTASITCSGDKLGNKNAYWYQQKPGQSPVLVMYQSTRRPSGIPERFSASNSGNTATLTISGTQAMDEADYYCQAWDSSSGWEVFGGGTKLTVL
B2: TC01 (antibody, V domains shown)
VH: B1 VH with Q13K, S19K, A23K, S84R
VL: B1 VL
notes: also called anti-TMEM219 TC01; TCO1
B3: TC03 (antibody, human IgG4, V domains shown)
VH: B1 VH
VL: B1 VL with D91L
B4: TC04 (antibody, human IgG4, V domains shown)
VH: B1 VH
VL: B1 VL with M80E
B5: TM1 (antibody, V domains shown)
VH: QVQLVESGGGVVQPGRSLRLSCAASGFTFSTYGIHWVRQAPGKGLEWVAVIWYDGYNKYYVDSVKGRFTISRDNSENTVYLQMNSLRTEDTAVYYCAREGWFGKLLSALDIWGQGTMVTVSS
VL: VIQMTQSPSSLSASVGDRVTITCRASQGIRNDLGWYLQKPGKAPELLIYPASSLQSGVPSRFSGSGSGTDFTLTISSLQPEDFATYYCLQDYNYPFTFGQGTKLEIK
notes: constant regions are not tied to it; also called anti-TMEM219 TM1
B6: TE10 (antibody, V domains shown)
VH: QVQLVESGGGVVQPGRSLRLSCAASGFTFSSYGMHWVRQAPGKGLEWVAVIWYDGSNKYYADSVKGRFTISRDNSKNTLYLQMNSLRAEDTAVYYCAREGRGMDVWGQGTTVTVSS
VL: QPVLTQSSSASASLGSSVKLTCTLSSGHSSYIIAWHQQQPGKAPRYLMKLEGSGSYNKGSGVPDRFSGSSSGADRYLTISNLQFEDEADYYCETWDSNTPHAVFGGGTQLTAL

Columns and labels:
[1] = target: TMEM219 on human beta cells (Betalox-5) and human islets (human) (UniProt Q86XT9); assay: cell-based or functional assay
Sequence of TMEM219 on human beta cells (Betalox-5) and human islets (human) (Q86XT9 39-240): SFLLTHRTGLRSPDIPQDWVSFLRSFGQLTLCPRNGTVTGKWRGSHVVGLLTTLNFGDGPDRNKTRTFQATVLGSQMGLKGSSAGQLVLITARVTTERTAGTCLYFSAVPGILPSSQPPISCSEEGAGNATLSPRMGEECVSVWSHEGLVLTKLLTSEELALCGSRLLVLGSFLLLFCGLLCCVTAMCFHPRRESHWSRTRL

Human Ecto-TMEM219 [2] = target: T1, Human Ecto-TMEM219; assay: ELISA, ectoTMEM coated at 5 µg/ml, antibody dilution series, anti-human-Fc HRP detection
Method: The binding activity of the purified IgG4 (TC03, TC04, TC05) to the recombinant ectoTMEM protein was measured by ELISA. In brief, ectoTMEM was diluted in PBS to 5 μg/ml and coated onto 96-well ELISA plates (100 μl/well) for 1 h at RT. After blocking and washing of the plates, an antibody dilution series was added to the plates and incubated for 1 h at RT. After washing of the plates, bound antibodies were detected via a secondary anti-human-Fc HRP-conjugated antibody. After another washing step, TMB reaction was performed, stopped with sulfuric acid and absorbance was measured. Based on the absorbance readings, an EC50 of the saturating antibodies was calculated.

Murine Ecto-TMEM219 = target: T2, Murine Ecto-TMEM219; assay: Octet BLI, antibody captured via Fc on biosensor, antigen at 150 nM
Method: (§1) The binding affinity measurements were performed using an Octet instrument (Octet BMIA), which is a Biolayer Interferometry (BLI) platform based on Biomolecular Interaction Analysis. To establish the assay, the target monoclonal antibody (30 μg/ml in PBS) was immobilized via Fc on the Anti-Mouse IgG Fc Capture (AMC) or Anti-Human IgG Fc Capture (AMC) biosensors and the interaction with the antigen, human and murine Ecto-TMEM219 (Genescript's customized protein service) at 150 nM was measured.

Human Ecto-TMEM219 [3] = target: T1, Human Ecto-TMEM219; assay: as above
Method: as §1

| Molecule | EC50 (Human Ecto-TMEM219 [2]) [µg/mL] | Kd (Human Ecto-TMEM219 [3]) [nM] | further results |
| --- | --- | --- | --- |
| Recombinant human IGFBP3 (from UniProt P17936 28-291) (ligand) |  |  | CASP8 mRNA upregulation in beta cells cultured with IGFBP3 [1]: 70%; cell death of beta cells challenged with IGFBP3 [1]: 30% |
| B1 | 0.0791 |  |  |
| B2 |  | 20 | Kd (Murine Ecto-TMEM219): 30 nM |
| B3 | 0.0647 |  |  |
| B4 | 0.0898 |  |  |
| B5 |  | < 0.001 | Kd (Murine Ecto-TMEM219): < 0.001 nM |
| B6 |  | < 0.001 |  |
